The series deals with the molecule itself. The experiment in a line: SDS-PAGE without mercaptoethanol, subunit-subunit disulfide-linked homodimer.

B1: modified water-soluble PQQGDH Ser415Cys (Acinetobacter calcoaceticus) (enzyme)
chain: DVPLTPSQFAKAKSENFDKKVILSNLNKPHALLWGPDNQIWLTERATGKILRVNPESGSVKTVFQVPEIVNDADGQNGLLGFAFHPDFKNNPYIYISGTFKNPKSTDKELPNQTIIRRYTYNKSTDTLEKPVDLLAGLPSSKDHQSGRLVIGPDQKIYYTIGDQGRNQLAYLFLPNQAQHTPTQQELNGKDYHTYMGKVLRLNLDGSIPKDNPSFNGVVSHIYTLGHRNPQGLAFTPNGKLLQSEQGPNSDDEINLIVKGGNYGWPNVAGYKDDSGYAYANYSAAANKSIKDLAQNGVKVAAGVPVTKESEWTGKNFVPPLKTLYTVQDTYNYNDPTCGEMTYICWPTVAPSSAYVYKGGKKAITGWENTLLVPSLKRGVIFRIKLDPTYCTTYDDAVPMFKSNNRYRDVIASPDGNVLYVLTDTAGNVQKDDGSVTNTLENPGSLIKFTYKAK
modifications: Cys415 of each subunit joined in an inter-subunit disulfide bond
notes: also called modified enzyme Ser415Cys; Ser4l5Cys
In the case of B1, the binding result is “binds”.

Source of the values: patent US20040191883A1 (ULTIZYME INTERNATIONAL, published 2004).
